pKd: −log10 of the molar value.
Columns and labels:
[1] = biological target: ΔDII-PfAMA1 (PfAMA1 DI-DII with residues 351-387 of the DII loop replaced by 7 Gly/Ser residues) (Plasmodium falciparum) (UniProt Q7KQK5); test: ITC; 25°C, MicroCal iTC200; cell: PfAMA1 or ΔDII-PfAMA1 (10 μM); syringe: PfRON2D3-TRX (110 μM), 17 injections of 2.2 μL; 20 mM Hepes pH 7.5, 150 mM NaCl; one binding site model
[2] = biological target: F*PfRON2sp1 (39 aa) [2021-2059], fluorescein-labeled PfRON2sp1 peptide (Plasmodium falciparum); test: fluorescence polarisation; anisotropy kinetics at 25°C; association: 10 nM labeled probe with 50, 100, 200 nM protein; dissociation: 10 nM preformed complex challenged with 2500 or 5000 nM unlabeled PfRON2sp1; global fit to a one-intermediate model; PBS pH 7.4, at least 0.1% BSA
[3] = biological target: F*PfRON2sp1 (39 aa) [2021-2059], fluorescein-labeled PfRON2sp1 peptide (Plasmodium falciparum); test: fluorescence polarisation; anisotropy kinetics at 20°C; association: 10 nM labeled probe with 50, 100, 200 nM protein; dissociation: 10 nM preformed complex challenged with 2500 or 5000 nM unlabeled PfRON2sp1; global fit to a one-intermediate model; PBS pH 7.4, at least 0.1% BSA
[4] = biological target: F*PfRON2sp1 (39 aa) [2021-2059], fluorescein-labeled PfRON2sp1 peptide (Plasmodium falciparum); test: fluorescence polarisation; anisotropy kinetics at 30°C; association: 10 nM labeled probe with 50, 100, 200 nM protein; dissociation: 10 nM preformed complex challenged with 2500 or 5000 nM unlabeled PfRON2sp1; global fit to a one-intermediate model; PBS pH 7.4, at least 0.1% BSA
[5] = biological target: F*PfRON2sp1 (39 aa) [2021-2059], fluorescein-labeled PfRON2sp1 peptide (Plasmodium falciparum); test: fluorescence polarisation; anisotropy titration at 20°C; 10 nM F*PfRON2sp1 titrated with protein (0 to 10 μM); PBS pH 7.4, at least 0.1% BSA
[6] = biological target: F*PfRON2sp1 (39 aa) [2021-2059], fluorescein-labeled PfRON2sp1 peptide (Plasmodium falciparum); test: fluorescence polarisation; anisotropy titration at 25°C; 10 nM F*PfRON2sp1 titrated with protein (0 to 10 μM); PBS pH 7.4, at least 0.1% BSA
[7] = biological target: F*PfRON2sp1 (39 aa) [2021-2059], fluorescein-labeled PfRON2sp1 peptide (Plasmodium falciparum); test: fluorescence polarisation; anisotropy titration at 30°C; 10 nM F*PfRON2sp1 titrated with protein (0 to 10 μM); PBS pH 7.4, at least 0.1% BSA

Substance: PfRON2D3-TRX (thioredoxin fusion of PfRON2D3, amino acids Asp2021 to Ser2059) (domain or fragment)
- pKd [1]: 7.03
- dH [1]: -11.8 kcal/mol

Substance: ΔDII-PfAMA1 (PfAMA1 DI-DII with residues 351-387 of the DII loop replaced by 7 Gly/Ser residues) (from UniProt Q7KQK5 104-350; Q7KQK5 388-438) (domain or fragment)
- pKd [2]: 7.10
- complex half-life (calculated from the one-intermediate model) [2]: 69.9 s
- complex half-life (experimental) [2]: 48 s
- dH (overall, summation of the transition states from the kinetic fit) [2]: -10.6 kcal/mol
- dH of step 1 (formation of the intermediate) [2]: -16.7 kcal/mol
- k1 (step 1, forward: reactants to intermediate) [2]: 116000 M⁻¹ s⁻¹
- k1/k2 (association constant of step 1) [2]: 1.17e+07 M⁻¹
- k2 (step 1, reverse: intermediate to reactants) [2]: 0.0099 s⁻¹
- k3 (step 2, forward: intermediate to complex) [2]: 0.0074 s⁻¹
- k3/k4 (equilibrium constant of step 2) [2]: 0.067
- k4 (step 2, reverse: complex to intermediate) [2]: 0.11 s⁻¹
- pKd [3]: 7.30
- complex half-life (calculated from the one-intermediate model) [3]: 166 s
- complex half-life (experimental) [3]: 100 s
- k1 (step 1, forward: reactants to intermediate) [3]: 78900 M⁻¹ s⁻¹
- k1/k2 (association constant of step 1) [3]: 1.89e+07 M⁻¹
- k2 (step 1, reverse: intermediate to reactants) [3]: 0.00417 s⁻¹
- k3 (step 2, forward: intermediate to complex) [3]: 0.00459 s⁻¹
- k3/k4 (equilibrium constant of step 2) [3]: 0.056
- k4 (step 2, reverse: complex to intermediate) [3]: 0.0812 s⁻¹
- pKd [4]: 6.90
- complex half-life (calculated from the one-intermediate model) [4]: 30 s
- complex half-life (experimental) [4]: 30 s
- k1 (step 1, forward: reactants to intermediate) [4]: 168000 M⁻¹ s⁻¹
- k1/k2 (association constant of step 1) [4]: 7.35e+06 M⁻¹
- k2 (step 1, reverse: intermediate to reactants) [4]: 0.0229 s⁻¹
- k3 (step 2, forward: intermediate to complex) [4]: 0.0117 s⁻¹
- k3/k4 (equilibrium constant of step 2) [4]: 0.08
- k4 (step 2, reverse: complex to intermediate) [4]: 0.147 s⁻¹
- pKd [5]: 7.22
- pKd [6]: 7.03
- pKd [7]: 6.90

Source: publication PMC4701444 (PLoS ONE, 2016)
